This assay deals with laminin 5 (α3β3γ2) purified from SCC25 cell culture medium (human (endogenous in SCC25)) (UniProt Q16787). As to the kind of experiment: rotary shadowing electron microscopy.

As for “NC-1 domain of type VII collagen purified from human amnion (from UniProt Q02388 17-2944) (domain or fragment)”, the stoichiometry N is 1.

The values are drawn from article PMC2141627.
